{
  "source": "patent US11155602B2",
  "about": "“Polypeptides targeting HIV fusion” (priority 2015, dated 2021)",
  "molecules": {"B1": {"name": "226 (protein)", "chain": "MGHHHHHHGGSVSDVPRDLEVVAATPTSLLISWEYKVHPYRYYRIIHETGGNSPVQEFTVPSVLSTATISGLKPGVDYTITVYAVTYGDDSAPISINYRTEID", "modifications": "Adnectin"}, "B2": {"name": "231 (protein)", "chain": "MGVSDVPRDLEVVAATPTSLLISWEYKVHPYRYYRITYGETGGNSPVQEFTVPSVLSTATISGLKPGVDYTITVYAVTYGVNSIPISINYRTEIDKPSQHHHHHH", "modifications": "Adnectin"}, "B3": {"name": "238 (protein)", "chain": "MGVSDVPRDLEVVAATPTSLLISWEYKVNPWRYYRITYGETGGNSPVQEFTVPSVLSTATISGLKPGVDYTITVYAVTYGIQSPPISINYRTEIDKPSQHHHHHH", "modifications": "Adnectin"}, "B4": {"name": "243 (protein)", "chain": "MGVSDVPRDLEVVAATPTSLLISWEYKVNPWRYYRITYGETGGNSPVQEFTVPSVLSTATISGLKPGVDYTITVYAVTYGVDSDPISINYRTEIDKPSQHHHHHH", "modifications": "Adnectin"}, "B5": {"name": "234 (protein)", "chain": "MGVSDVPRDLEVVAATPTSLLISWEYKVNAYRYYRITYGETGGNSPVQEFTVPSVLSTATISGLKPGVDYTITVYAVTYGIDSSPISINYRTEIDKPSQHHHHHH", "modifications": "Adnectin"}, "B6": {"name": "236 (protein)", "chain": "MGVSDVPRDLEVVAATPTSLLISWEYKVNPWRYYRITYGETGGNSPVQEFTVPSVLSTATISGLKPGVDYTITVYAVTRGVDSAPISINYRTEIDKPSQHHHHHH", "modifications": "Adnectin"}, "B7": {"name": "244 (protein)", "chain": "MGVSDVPRDLEVVAATPTSLLISWEYKVDPYRYYRITYGETGGNSPVQEFTVPSVLSTATISGLKPGVDYTITVYAVTYGVDSDPISINYRTEIDKPSQHHHHHH", "modifications": "Adnectin"}, "B8": {"name": "232 (protein)", "chain": "MGVSDVPRDLEVVAATPTSLLISWEYKVNAYRYYRITYGETGGNSPVQEFTVPSVLSTATISGLKPGVDYTITVYAVTYGIESSPISINYRTEIDKPSQHHHHHH", "modifications": "Adnectin"}, "B9": {"name": "240 (protein)", "chain": "MGVSDVPRDLEVVAATPTSLLISWEYKVSPYRYYRITYGETGGNSPVQEFTVPSVLSTATISGLKPGVDYTITVYAVTYGVNSIPISINYRTEIDKPSQHHHHHH", "modifications": "Adnectin"}, "B10": {"name": "235 (protein)", "chain": "MGVSDVPRDLEVVAATPTSLLISWEYKVHYDRYYRITYGETGGNSPVQEFTVPSVLSTATISGLKPGVDYTITVYAVTNGVLSSPISINYRTEIDKPSQHHHHHH", "modifications": "Adnectin"}, "B11": {"name": "233 (protein)", "chain": "MGVSDVPRDLEVVAATPTSLLISWEYKVHPYRYYRITYGETGGNSPVQEFTVPSVLSTATISGLKPGVDYTITVYAVTDGVQSSPISINYRTEIDKPSQHHHHHH", "modifications": "Adnectin"}, "B12": {"name": "241 (protein)", "chain": "MGVSDVPRDLEVVAATPTSLLISWEYKVNPWRYYRITYGETGGNSPVQEFTVPSVLSTATISGLKPGVDYTITVYAVTYGVNSLPISINYRTEIDKPSQHHHHHH", "modifications": "Adnectin"}, "B13": {"name": "239 (protein)", "chain": "MGVSDVPRDLEVVAATPTSLLISWQYKVHPYRWYRITYGETGGNSPVQEFTVPSVLSTATISGLKPGVDYTITVYAVTYGVNSIPISINYRTEIDKPSQHHHHHH", "modifications": "Adnectin"}, "B14": {"name": "126 (protein)", "chain": "MGVSDVPRDLEVVAATPTSLLISWEYKVHPYRYYRITYGETGGNSPVQEFTVPSVLSTATISGLKPGVDYTITVYAVTYGIQSPPISINYRTEIDKPSQHHHHHH", "modifications": "Adnectin"}, "B15": {"name": "223 (protein)", "chain": "MGHHHHHHGGSVSDVPRDLEVVAATPTSLLISWEYKVDYRRYYRITYGETGGNSPVQEFTVPSVLSTATISGLKPGVDYTITVYAVTYGDDSAPISINYRTEID", "modifications": "Adnectin"}, "B16": {"name": "224 (protein)", "chain": "MGHHHHHHGGSVSDVPRDLEVVAATPTSLLISWEYKVAYDRYYRITYGETGGNSPVQEFTVPSVLSTATISGLKPGVDYTITVYAVTYGDDSAPISINYRTEID", "modifications": "Adnectin"}, "B17": {"name": "225 (protein)", "chain": "MGHHHHHHGGSVSDVPRDLEVVAATPTSLLISWEYKVTSYRYYRITYGETGGNSPVQEFTVPSVLSTATISGLKPGVDYTITVYAVTYGDDSAPISINYRTEID", "modifications": "Adnectin"}, "B18": {"name": "248 (protein)", "chain": "MGHHHHHHGGSVSDVPRDLEVVAATPTSLLISWEYKVHPYRYYRITYGETGGNTPVQEFRVPSVLSTATISGLKPGVDYTITVYAVTYADASAPISINYRTEID", "modifications": "Adnectin"}, "B19": {"name": "245 (protein)", "chain": "MGHHHHHHGGSVSDVPRDLEVVAATPTSLLISWKYQVHAYRYYRITYGETGGNSPVQEFTVPSVLSTATINGLKPGVDYTITVYAVTYGIISEPISINYRTEID", "modifications": "Adnectin"}, "B20": {"name": "229 (protein)", "chain": "MGHHHHHHGGSVSDVPRDLEVVAATPTSLLISWEYKVDHRRYYRITYGETGGNSPVQEFTVPSVLSTATISGLKPGVDYTITVYAVTYGDDSAPISINYRTEID", "modifications": "Adnectin"}, "B21": {"name": "228 (protein)", "chain": "MGHHHHHHGGSVSDVPRDLEVVAATPTSLLISWEYKVNHQRYYRITYGETGGNSPVQEFTVPSVLSTATISGLKPGVDYTITVYAVTYGDDSAPISINYRTEID", "modifications": "Adnectin"}, "B22": {"name": "246 (protein)", "chain": "MGHHHHHHGGSVSDVPRDLEVVAATPTSLLISWEYKVNYNRYYRITYGETGGNSPVQEFTVPSVLSTATISGLKPGVDYTITVYAVTEGVQSAPISINYRTEID", "modifications": "Adnectin"}, "B23": {"name": "125 (protein)", "chain": "MGHHHHHHGGVSDVPRDLEVVAATPTSLLISWEYKVHPYRYYRITYGETGGNSPVQEFTVPSVLSTATISGLKPGVDYTITVYAVTYGVQSDPISINYRTPGG", "modifications": "Adnectin"}, "B24": {"name": "227 (protein)", "chain": "MGHHHHHHGGSVSDVPRDLEVVAATPTSLLISWEYKVHPYRYYRITYGETGGNSPVQEFTVPSVLSTATISGLKPGVDYTITVYAVTYGDDSAPISINYRKEAEL", "modifications": "Adnectin"}, "B25": {"name": "230 (protein)", "chain": "MGVSDVPRDLEVVAATPTSLLISWEYKVHPYRYYRITYGETGGNSPVQEFTVPSVLSTATISGLKPGVDYTITVYAVTYGVDSDPISINYRTDDKPSQHHHHHH", "modifications": "Adnectin"}},
  "data": [
    {"system": "NL-Rluc virus", "assay": "Combinectin potency assay: antiviral EC50, NL-Rluc virus in MT-2 cells, luciferase readout", "assay_type": "cell-based, HIV-1", "settings": "Anti-N17 Adnectin, Table 3", "summary_of_the_method": "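Peptides, serially diluted threefold over 11 points in triplicate, were exposed for 4–5 days to MT-2 cells preinfected 1 h with NL-Rluc virus (MOI 0.01). Replication read out as Renilla luciferase signal, with EC50 derived against untreated infected controls.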", "units": {"EC50": "nM"}, "values": [
      {"molecule": "B1", "EC50": 631},
      {"molecule": "B2", "EC50": 10},
      {"molecule": "B3", "EC50": 11},
      {"molecule": "B4", "EC50": 48},
      {"molecule": "B5", "EC50": 20},
      {"molecule": "B6", "EC50": 85},
      {"molecule": "B7", "EC50": 58},
      {"molecule": "B8", "EC50": 47},
      {"molecule": "B9", "EC50": 5},
      {"molecule": "B10", "EC50": 29},
      {"molecule": "B11", "EC50": 55},
      {"molecule": "B12", "EC50": 8},
      {"molecule": "B13", "EC50": 4},
      {"molecule": "B14", "EC50": 8},
      {"molecule": "B15", "EC50": "> 1000"},
      {"molecule": "B16", "EC50": "> 1000"},
      {"molecule": "B17", "EC50": "> 1000"},
      {"molecule": "B18", "EC50": "> 1000"},
      {"molecule": "B19", "EC50": 50},
      {"molecule": "B20", "EC50": "> 1000"},
      {"molecule": "B21", "EC50": "> 1000"},
      {"molecule": "B22", "EC50": "> 1000"},
      {"molecule": "B23", "EC50": 4340},
      {"molecule": "B24", "EC50": "> 1000"},
      {"molecule": "B25", "EC50": 17}
    ]}
  ]
}
